In patent US20240209088A1 one finds percent of cells in the CD3+ CD4+ quadrant, percent of cells in the CD3- CD4+ quadrant and Frequency CD3+ CD4+ (%) data, which are given here for two substances.

Several values for one entry are separate records, joined by “and”; a condition that tells them apart may be missing. Equal values may be shown once.

Assay [1] concerns the target full-length human CD4 on cells (human) (UniProt P01730). Briefly: flow cytometry of human PBMCs, donor 2, labeled Nb with anti-CD3-FITC.
Assay [2] has the same target. In words: flow cytometry of human PBMCs, donor 3, labeled Nb with anti-CD3-FITC. On the technique in general: Flow cytometry measures light scatter and fluorescence of single cells or particles in a stream.
Assay [3] has the same target. In words: flow cytometry of human PBMCs, donor 1, labeled Nb with anti-CD3-FITC; the same panel in Fig. 3A prints 0,82.
The target is the same in assay [4]. Briefly: flow cytometry of human PBMCs, donor 1, labeled Nb with anti-CD3-FITC; the same panel in Fig. 8A prints 0.62.
For assay [5] the target is unchanged. In words: flow cytometry of human PBMCs, donor 1, labeled Nb with anti-CD3-FITC.
Assay [6] shares this target. The description is as above. The source holds these as a separate data set.
The target is the same in assay [7]. In words: flow cytometry of human PBMCs, donor 3, labeled anti-CD4 antibody with anti-CD3-FITC.
Assay [8] has the same target. In words: flow cytometry of human PBMCs, donor 1, with anti-CD3-FITC; c (nM) ~1.
The target is the same in assay [9]. In words: flow cytometry of human PBMCs, donor 3, with anti-CD3-FITC; c (nM) ~1.
The target is the same in assay [10]. In words: flow cytometry of human PBMCs, donor 1, labeled anti-CD4 antibody with anti-CD3-FITC.
The target is the same in assay [11]. Briefly: flow cytometry of human PBMCs, donor 2, labeled anti-CD4 antibody with anti-CD3-FITC.
For assay [12] the target is unchanged. In words: flow cytometry of human PBMCs, donor 2, with anti-CD3-FITC; c (nM) ~1.

For the substance “non-specific fluorescently labeled GFP-binding Nb (VHH)”, the percent of cells in the CD3+ CD4+ quadrant in [1] is 0.03% and 0.26%; in assay [2] it was 0.03% and 0.95%; in assay [5], 0.13%; in assay [6], 1.39%. For the same substance, the percent of cells in the CD3- CD4+ quadrant in assay [1] was 0.14% and 0.36%; in [2], 0.16% and 1.36%; in assay [3], 0.62%; in assay [4], 0.82%.

For anti-human CD4 antibody RPA-T4, the values for the percent of cells in the CD3+ CD4+ quadrant in assay [7], in assay [10] and in [11] were 24.3%, 33.7% and 27%, respectively. The values for the percent of cells in the CD3- CD4+ quadrant in assay [7], in assay [10] and in [11] were 43.4%, 21.7% and 22.4%, respectively. Further, the values for the Frequency CD3+ CD4+ (%) in assay [8], in [9] and in assay [12] were 32.7%, 22.8% and 26.2%, respectively.
